# From patent US9074002B2, “PTP1B inhibitors” (Cold Spring Harbor Laboratory, priority 2009, dated 2015)
# Entries after “also recorded” stand apart in the source; their conditions may differ.
# T1: endogenous PTP1B-OX (Homo sapiens, UniProt P18031)
# T1 construct: endogenous in cells; host or cells: 293T cells (transfected only with the scFv intrabody)
# T1 sequence (P18031 1-435): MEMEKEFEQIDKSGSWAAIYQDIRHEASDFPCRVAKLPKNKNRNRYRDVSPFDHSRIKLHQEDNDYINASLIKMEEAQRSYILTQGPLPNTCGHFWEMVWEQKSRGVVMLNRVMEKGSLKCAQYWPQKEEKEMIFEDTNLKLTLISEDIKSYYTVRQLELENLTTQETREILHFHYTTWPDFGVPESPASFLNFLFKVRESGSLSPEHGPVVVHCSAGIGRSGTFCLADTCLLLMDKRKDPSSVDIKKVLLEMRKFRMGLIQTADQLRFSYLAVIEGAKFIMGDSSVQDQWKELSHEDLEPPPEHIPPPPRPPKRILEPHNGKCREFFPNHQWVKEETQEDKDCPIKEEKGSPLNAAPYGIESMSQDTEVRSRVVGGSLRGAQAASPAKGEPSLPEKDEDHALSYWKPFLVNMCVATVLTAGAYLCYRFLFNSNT
# B1: scFv45: conformation-sensor scFv binding PTP1B-OX, SEQ ID NO: 26 and 78; expressed as intrabody (protein)
# scFv: MKKTAIAIAVALAGFATVAQAALTQPSSVSANPGGTVKITCSGSSSAYGYGWYQQKSPGSAPVTVIYNNNKRPSNIPSRFSGSKSGSTGTLTITGVQAEDEAVYFCGSEDSSTDAIFGAGTTLTVLGQSSRSSTVTLDESGGGLQAPGGALSLVCKASGFTFSSYDMGWIRQAPGKGLEYVAGITDNGRYASYGSAVDGRATISRDNGQSSVRLQLNNLRAEDTGTYYCARDDGSGWTGNSIDAWGHGTEVIVSSTSGQAGQHHHHHHGAYPYDVPDYAS
# B2: scFv57: scFv binding PTP1B-OX, SEQ ID NO: 27 and 90 (protein)
# scFv: MKKTAIAIAVALAGFATVAQAALTQPSSVSANPGAFNKITCSGSSSAYGYGWNQQKSPGSAPVTVIYNNNKRPSNIPSRFSGSKSGSTGTLTITGDQDEDEDFYFCGSEYSSTDAIFGAGTTLTVLGQSSRSSTVTLDESGGGLQAPGGALSLVCKASGFTFSSYDMGWIPQAPGKGLEYVAGITDNGIYASYGSAVDGRATISRDNRQSSVKLQLNNLKADDTGTYYCARDDGSGWTGNSIDAWGHGTEVIVSSTSGQAGQHHHHHHGAYPYDVPDYAS
# Molecular target: T1, endogenous PTP1B-OX
# Test: Intrabody interaction in 293T cells treated with H2O2 (Ni-NTA pull down / anti-PTP1B immunoprecipitation)
# Format: cell-based
# Details: 1 mM H2O2 5 minutes, FIGS. 11, 12
# Outline: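 293T cells transiently expressing HA-detected scFv intrabodies, serum-starved 16 h, then 1 mM H2O2 for 5 min or 20 mM NAC for 1 h at 37 °C (NAC lysates with 2 mM TCEP). Complexes from 1 mg lysate captured by Ni-NTA pull-down or anti-PTP1B (FG6) IP; PTP1B and intrabody detected by immunoblot.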
molecule,measurement,value
B1,binding of intrabody to endogenous PTP1B-OX,interaction between scFv45 and PTP1B-OX was observed; also recorded: co-pulldown of PTP1B-OX in the presence of H2O2
B2,binding of intrabody to endogenous PTP1B-OX,bound to endogenous PTP1B-OX strongly
